Data reported in US20060034860A1.

How the values were obtained:
[1] = biological target: HIV-1 protease, bait PR_v1 (HIV-1 isolate YU2) (UniProt P35963); assay: cell-based or functional assay
[2] = biological target: HIV-1 Integrase (IN), bait IN (HIV-1 isolate YU2) (UniProt P35963); assay: cell-based or functional assay
Sequence of HIV-1 Integrase (IN), bait IN (HIV-1 isolate YU2) (P35963 1148-1435 limits assumed): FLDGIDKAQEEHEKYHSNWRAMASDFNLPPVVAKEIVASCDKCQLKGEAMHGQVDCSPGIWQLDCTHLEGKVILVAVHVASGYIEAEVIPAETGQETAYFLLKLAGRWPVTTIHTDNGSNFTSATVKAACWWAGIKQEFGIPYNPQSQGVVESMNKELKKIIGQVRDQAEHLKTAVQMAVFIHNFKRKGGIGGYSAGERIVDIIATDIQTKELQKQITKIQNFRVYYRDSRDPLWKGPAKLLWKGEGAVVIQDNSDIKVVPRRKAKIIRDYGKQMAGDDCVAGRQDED

Sequence of HIV-1 protease, bait PR_v1 (HIV-1 isolate YU2) (P35963 489-587 limits assumed): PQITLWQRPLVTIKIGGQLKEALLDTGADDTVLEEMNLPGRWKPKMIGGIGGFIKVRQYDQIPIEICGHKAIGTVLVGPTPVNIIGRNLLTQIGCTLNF

| Substance | inhibition of HIV-1 infection (p24 antigen in supernatant) after siRNA against AIM1, HeLa cells with CD4 and CCR5 [1] | inhibition of HIV replication (p24 antigen in supernatant) after siRNA against LEDGF, HeLa cells with CD4 and CCR5 [2] |
| --- | --- | --- |
| Human AIM1 (prey030612), Absent in Melanoma, prey fragments, Q9Y4K1 1-2131 | 30% |  |
| LEDGF p75 isoform (PSIP2), prey fragments (from UniProt O75475 340-417) |  | 84% |
